According to paper PMC5849085 (Immunity, 2017):

Assays:
[1] = molecular target: T1, human IL-1RAcP (residues 1-350) (human, UniProt Q9NPH3 21-350); experiment: HDX-MS
T1 sequence (looked up): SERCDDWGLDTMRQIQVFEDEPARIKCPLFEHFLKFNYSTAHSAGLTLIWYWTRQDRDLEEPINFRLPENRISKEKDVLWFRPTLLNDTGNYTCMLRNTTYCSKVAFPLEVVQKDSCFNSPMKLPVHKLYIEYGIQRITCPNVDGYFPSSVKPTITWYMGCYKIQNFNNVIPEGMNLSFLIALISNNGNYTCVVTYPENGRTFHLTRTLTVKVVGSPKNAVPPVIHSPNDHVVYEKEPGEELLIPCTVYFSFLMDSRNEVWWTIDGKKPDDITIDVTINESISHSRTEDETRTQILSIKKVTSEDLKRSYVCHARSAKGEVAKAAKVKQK

[2] = molecular target: T2, human IL-1RAcP (residues 1-350) fused to human IgG1-Fc (human, UniProt Q9NPH3 21-350); experiment: SPR
T2 sequence (looked up): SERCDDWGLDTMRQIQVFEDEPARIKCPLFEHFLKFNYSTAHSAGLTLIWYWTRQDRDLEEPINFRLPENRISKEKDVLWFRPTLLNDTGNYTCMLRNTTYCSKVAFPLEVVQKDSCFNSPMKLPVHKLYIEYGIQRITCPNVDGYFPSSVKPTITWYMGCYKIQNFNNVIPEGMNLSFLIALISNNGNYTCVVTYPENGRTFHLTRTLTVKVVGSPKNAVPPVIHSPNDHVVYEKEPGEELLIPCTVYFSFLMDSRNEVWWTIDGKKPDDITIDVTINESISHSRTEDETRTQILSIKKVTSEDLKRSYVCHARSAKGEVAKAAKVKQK

B1: human IL-33:ST2 binary complex (complex)
chain 1: SITGISPITEYLASLSTYNDQSITFALEDESYEIYVEDLKKDEKKDKVLLSYYESQHPSNESGDGVDGKMLMVTLSPTKDFWLHANNKEHSVELHKCEKPLPDQAFFVLHNMHSNCVSFECKTDPGVFIGVKDNHLALIKVDSSENLCTENILFKLSET
chain 2: QTGKFSKQSWGLENEALIVRCPRQGKPSYTVDWYYSQTNKSIPTQERNRVFASGQLLKFLPAAVADSGIYTCIVRSPTFNRTGYANVTIYKKQSDCNVPDYLMYSTVSGSEKNSKIYCPTIDLYNWTAPLEWFKNCQALQGSRYRAHKSFLVIDNVMTEDAGDYTCKFIHNENGANYSVTATRSFTVKDEQGFSLFPVIGAPAQNEIKEVEIGKNANLTCSACFGKGTQFLAAVLWQLNGTKITDFGEPRIQQEEGQNQSFSNGLACLDMVLRIADVKEEDLLLQYDCLALNLHGLRRHTVRLSRK
- half-life of the ternary complex (EX1 kinetics of IL-1RAcP(150-156)) [1]: 10 min
- half-life of the ternary complex [2]: 26 min
